Laboratory results from IntAct's records for PubMed 29039417.

B1: Protein PTHB1 (Homo sapiens), Q3SYG4 (parent)
chain: MSLFKARDWWSTILGDKEEFDQGCLCLANVDNSGNGQDKIIVGSFMGYLRIFSPHPAKTGDGAQAEDLLLEVDLRDPVLQVEVGKFVSGTEMLHLAVLHSRKLCVYSVSGTLGNVEHGNQCQMKLMYEHNLQRTACNMTYGSFGGVKGRDLICIQSMDGMLMVFEQESYAFGRFLPGFLLPGPLAYSSRTDSFLTVSSCQQVESYKYQVLAFATDADKRQETEQQKLGSGKRLVVDWTLNIGEQALDICIVSFNQSASSVFVLGERNFFCLKDNGQIRFMKKLDWSPSCFLPYCSVSEGTINTLIGNHNNMLHIYQDVTLKWATQLPHIPVAVRVGCLHDLKGVIVTLSDDGHLQCSYLGTDPSLFQAPNVQSRELNYDELDVEMKELQKIIKDVNKSQGVWPMTEREDDLNVSVVVSPNFDSVSQATDVEVGTDLVPSVTVKVTLQNRVILQKAKLSVYVQPPLELTCDQFTFEFMTPDLTRTVSFSVYLKRSYTPSELEGNAVVSYSRPTDRNPDGIPRVIQCKFRLPLKLICLPGQPSKTASHKITIDTNKSPVSLLSLFPGFASQSDDDQVNVMGFHFLGGARITVLASKTSQRYRIQSEQFEDLWLITNELILRLQEYFEKQGVKDFACSFSGSIPLQEYFELIDHHFELRINGEKLEELLSERAVQFRAIQRRLLARFKDKTPAPLQHLDTLLDGTYKQVIALADAVEENQGNLFQSFTRLKSATHLVILLIALWQKLSADQVAILEAAFLPLQEDTQELGWEETVDAAISHLLKTCLSKSSKEQALNLNSQLNIPKDTSQLKKHITLLCDRLSKGGRLCLSTDAAAPQTMVMPGGCTTIPESDLEERSVEQDSTELFTNHRHLTAETPRPEVSPLQGVSE
partner: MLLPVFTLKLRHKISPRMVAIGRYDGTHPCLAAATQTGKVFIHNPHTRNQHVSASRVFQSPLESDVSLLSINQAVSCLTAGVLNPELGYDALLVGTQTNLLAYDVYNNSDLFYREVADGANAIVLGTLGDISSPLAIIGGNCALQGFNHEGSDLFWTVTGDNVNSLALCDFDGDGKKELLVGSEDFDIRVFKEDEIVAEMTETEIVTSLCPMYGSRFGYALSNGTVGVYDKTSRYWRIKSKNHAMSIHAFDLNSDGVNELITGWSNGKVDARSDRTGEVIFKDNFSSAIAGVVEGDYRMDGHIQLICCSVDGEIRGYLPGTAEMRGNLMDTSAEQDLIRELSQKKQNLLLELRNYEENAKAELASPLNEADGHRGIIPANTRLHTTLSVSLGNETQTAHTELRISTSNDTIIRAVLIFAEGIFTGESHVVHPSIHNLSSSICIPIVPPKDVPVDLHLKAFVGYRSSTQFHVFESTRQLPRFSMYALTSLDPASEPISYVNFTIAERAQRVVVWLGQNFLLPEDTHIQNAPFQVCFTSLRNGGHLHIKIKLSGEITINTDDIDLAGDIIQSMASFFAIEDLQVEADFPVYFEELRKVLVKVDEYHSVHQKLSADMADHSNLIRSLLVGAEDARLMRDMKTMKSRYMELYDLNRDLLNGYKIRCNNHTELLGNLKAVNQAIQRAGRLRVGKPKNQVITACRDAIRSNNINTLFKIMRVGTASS

Variants of: B1
Conditions: with bbs2_human BBS2, Q9BXC9

Variant | effect of a mutation on the interaction
A831E | with no effect
A831K | with no effect
V838K | with no effect
V838A | disrupting interaction strength
V838E | with no effect
D830K | with no effect
D830A | with no effect
D830E | with no effect
A832E | with no effect
A832K | with no effect
R824K | with no effect
R824A | with no effect
R824W | disrupting interaction strength
R824E | with no effect
L815A | with no effect
L815K | with no effect
L815E | with no effect
L815F | disrupting interaction strength
E857K | with no effect
E857A | with no effect
A833E | with no effect
A833K | with no effect
A833S | disrupting interaction strength
S806A | with no effect
S806E | with no effect
S806K | with no effect

Variant | effect of a mutation on the interaction
D850A | with no effect
D850E | with no effect
D850K | with no effect
S860A | with no effect
S860E | with no effect
S860K | with no effect
L808K | with no effect
L808A | with no effect
L808E | disrupting interaction strength
Q858A | with no effect
Q858E | with no effect
Q858K | with no effect
K810E | with no effect
K810A | with no effect
C843K | with no effect
C843E | with no effect
C843A | with no effect
L819K | with no effect
L819E | with no effect
L819A | with no effect
G822K | with no effect
G822R | disrupting interaction strength
G822E | with no effect
G822A | with no effect
E853K | with no effect
E853A | with no effect

Variant | effect of a mutation on the interaction
E848K | with no effect
E848A | with no effect
R854A | with no effect
R854E | with no effect
R854K | with no effect
S828K | with no effect
S828A | with no effect
S828E | with no effect
D859E | with no effect
D859K | with no effect
D859A | with no effect
S849E | with no effect
S849A | with no effect
S849K | with no effect
L814E | with no effect
L814A | with no effect
L814K | with no effect
P834K | with no effect
P834A | with no effect
P834E | with no effect
K821A | with no effect
K821E | with no effect
G823E | with no effect
G823A | with no effect
G823K | with no effect
S820A | with no effect

Variant | effect of a mutation on the interaction
S820K | with no effect
S820E | with no effect
Q807E | with no effect
Q807K | with no effect
Q807A | with no effect
D817K | with no effect
D817A | with no effect
D817E | with no effect
D804F | disrupting interaction strength
D804K | with no effect
T805K | with no effect
T805E | with no effect
T805A | with no effect
T805I | disrupting interaction strength
T865A | with no effect
P840E | with no effect
P840K | with no effect
P840A | disrupting interaction strength
L827K | with no effect
L827E | with no effect
L827A | disrupting interaction strength
V856E | with no effect
V856A | with no effect
V856K | with no effect
Q835E | with no effect
Q835K | with no effect

Variant | effect of a mutation on the interaction
Q835A | with no effect
Q835M | disrupting interaction strength
T836K | with no effect
T836E | with no effect
T836A | with no effect
I846E | with no effect
I846A | with no effect
I846K | with no effect
P847T | disrupting interaction strength
P847E | with no effect
P847K | with no effect
P847A | with no effect
S855A | with no effect
S855K | with no effect
S855E | with no effect
G842K | with no effect
G842E | with no effect
G842A | with no effect
G841E | with no effect
G841A | with no effect
G841K | with no effect
R818K | with no effect
R818A | with no effect
R818E | with no effect
L863A | with no effect
L863K | with no effect

Variant | effect of a mutation on the interaction
L863E | with no effect
I812A | with no effect
I812E | with no effect
I812K | with no effect
F864K | with no effect
F864A | with no effect
F864E | with no effect
T813E | with no effect
T813C | disrupting interaction strength
T813A | with no effect
T813K | with no effect
E862K | with no effect
E862A | with no effect
M837E | with no effect
M837K | disrupting interaction strength
M837A | with no effect
K809E | with no effect
K809A | with no effect
H811A | with no effect
H811E | with no effect
H811K | with no effect
T829E | with no effect
T829K | with no effect
T829A | with no effect
T844E | with no effect
T844K | with no effect

Variant | effect of a mutation on the interaction
T844A | with no effect
M839A | with no effect
M839E | with no effect
M839K | disrupting interaction strength
C826A | with no effect
C826K | with no effect
C826E | with no effect
E852K | with no effect
E852A | with no effect
L825E | with no effect
L825A | with no effect
L825K | with no effect
C816A | with no effect
C816E | with no effect
C816K | with no effect
T861A | with no effect
T861E | with no effect
T861K | with no effect
T845E | with no effect
T845A | with no effect
T845K | with no effect
L851E | with no effect
L851A | with no effect
L851K | with no effect
